Three molecules from US20120316071A1 (published 2012) can be followed below.

The target in test [1] is T1, rHuman EGF R/Fc Chimera, CF (R&D Systems Cat#344-ER) (human, UniProt P00533 25-645).
T1 construct: Bought recombinant protein; also called epidermal growth factor receptor; Fc part of the bought chimera not given
The test is described as follows: ECL multispot (MSD) assay, antigen spotted on plate; blank spot of this row 278.

Test [2] has as its target T2, rHuman IGF-1 sR, (IGF-1 sR), CF (R&D Systems Cat#391-GR) (human, UniProt P08069 31-932).
T2 construct: Bought recombinant soluble receptor; also called insulin-like growth factor-1 soluble receptor
The test is described as above.

Test [3] has as its target T3, rHuman P-Cadherin/Fc Chimera, CF (R&D Systems Cat#861-PC) (human, UniProt P22223 108-654).
T3 construct: Bought recombinant protein; Fc part of the bought chimera not given
Described as above.

Test [4] has as its target T4, rHuman CD44/Fc Chimera, CF (R&D Systems Cat#3660-CD) (human, UniProt P16070 21-220).
T4 construct: Bought recombinant protein; Fc part of the bought chimera not given
The description is as above.

For test [5], the target named is T5, rHuman ErbB2/Fc Chimera, CF (R&D Systems Cat#1129-ER) (human, UniProt P04626 23-652).
T5 construct: Bought recombinant protein; also called human epidermal growth factor 2 receptor; Fc part of the bought chimera not given
The description is as above.

Test [6] addresses T6, Recombinant Human DLL4 (R&D Systems Cat#1506-D4/CF) (human, UniProt Q9NR61 27-524).
T6 construct: Bought recombinant protein; also called delta-like protein 4; rHuman DLL4
Described as above.

Test [7] concerns the target T7, rHuman Notch-1/Fc Chimera, CF (R&D Systems Cat#3647-TK) (human, UniProt P46531 19-526).
T7 construct: Bought recombinant protein; Fc part of the bought chimera not given
The description is as above.

Test [8] concerns the target T8, rHuman Erythropoietin R/Fc Chimera, CF (R&D Systems Cat#963-ER) (human, UniProt P19235 25-250).
T8 construct: Bought recombinant protein; also called EPO R; EPO R/Fc; Fc part of the bought chimera not given
T8 sequence (looked up): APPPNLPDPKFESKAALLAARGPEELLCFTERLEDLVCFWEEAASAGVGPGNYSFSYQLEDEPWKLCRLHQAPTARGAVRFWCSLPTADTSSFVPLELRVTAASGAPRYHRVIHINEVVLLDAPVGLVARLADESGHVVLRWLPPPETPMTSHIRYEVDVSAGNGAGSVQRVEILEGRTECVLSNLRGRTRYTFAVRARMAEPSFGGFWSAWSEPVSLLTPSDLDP
The description is as above.

Test [9] deals with T9, rHuman HGF R/c-MET/Fc Chimera, CF (R&D Systems Cat#358-MT/CF) (human, UniProt P08581 25-932).
T9 construct: Bought recombinant protein; also called HGF R/Fc; hepatocyte growth factor receptor; Fc part of the bought chimera not given
T9 sequence (P08581 25-932, change not shown): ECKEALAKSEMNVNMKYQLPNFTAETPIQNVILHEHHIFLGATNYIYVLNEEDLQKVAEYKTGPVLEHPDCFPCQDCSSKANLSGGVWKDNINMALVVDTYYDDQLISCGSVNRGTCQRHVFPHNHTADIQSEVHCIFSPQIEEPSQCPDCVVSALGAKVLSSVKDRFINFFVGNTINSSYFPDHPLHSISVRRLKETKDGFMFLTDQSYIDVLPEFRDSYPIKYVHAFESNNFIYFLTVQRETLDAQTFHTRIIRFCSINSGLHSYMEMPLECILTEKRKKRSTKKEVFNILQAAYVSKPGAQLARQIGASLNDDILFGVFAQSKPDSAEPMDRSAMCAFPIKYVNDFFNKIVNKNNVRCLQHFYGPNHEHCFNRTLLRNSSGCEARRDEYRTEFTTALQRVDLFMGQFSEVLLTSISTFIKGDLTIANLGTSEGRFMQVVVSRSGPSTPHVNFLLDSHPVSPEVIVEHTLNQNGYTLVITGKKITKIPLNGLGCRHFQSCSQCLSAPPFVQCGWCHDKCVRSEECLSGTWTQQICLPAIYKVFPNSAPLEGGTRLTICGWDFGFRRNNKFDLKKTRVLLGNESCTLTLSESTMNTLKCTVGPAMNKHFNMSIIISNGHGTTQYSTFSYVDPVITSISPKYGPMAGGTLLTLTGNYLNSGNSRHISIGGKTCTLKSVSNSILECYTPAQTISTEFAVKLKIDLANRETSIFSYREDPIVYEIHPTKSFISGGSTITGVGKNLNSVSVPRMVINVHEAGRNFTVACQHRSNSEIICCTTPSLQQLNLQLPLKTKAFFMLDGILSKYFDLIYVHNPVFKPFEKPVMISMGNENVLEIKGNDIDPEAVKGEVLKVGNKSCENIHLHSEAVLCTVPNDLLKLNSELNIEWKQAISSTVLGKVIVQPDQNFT
The description is as above.

For test [10], the target named is T1, rHuman EGF R/Fc Chimera, CF (R&D …). Put plainly: ECL multispot (MSD) assay, antigen spotted on plate; blank spot.
Test [11] addresses T2, rHuman IGF-1 sR, (IGF-1 sR), CF (R&D …). The test is described as above.
The target in test [12] is T3, rHuman P-Cadherin/Fc Chimera, CF (R&D …). Described as above.
Test [13] deals with T4, rHuman CD44/Fc Chimera, CF (R&D Systems …). Described as above.
Test [14] deals with T5, rHuman ErbB2/Fc Chimera, CF (R&D …). The description is as above.
Test [15] deals with T6, Recombinant Human DLL4 (R&D Systems …). Described as above.
Test [16] concerns the target T7, rHuman Notch-1/Fc Chimera, CF (R&D …). Described as above.
Test [17] concerns the target T8, rHuman Erythropoietin R/Fc Chimera, CF …. The test is described as above.
The target of test [18] is T9, rHuman HGF R/c-MET/Fc Chimera, CF (R&D …). The description is as above.
For test [19], the target named is T1, rHuman EGF R/Fc Chimera, CF (R&D …). Put plainly: ECL multispot (MSD) assay, antigen spotted on plate; blank spot of this row 392.
Test [20] concerns the target T2, rHuman IGF-1 sR, (IGF-1 sR), CF (R&D …). Described as above.
The target of test [21] is T3, rHuman P-Cadherin/Fc Chimera, CF (R&D …). The description is as above.
Test [22] concerns the target T4, rHuman CD44/Fc Chimera, CF (R&D Systems …). Described as above.
Test [23] concerns the target T5, rHuman ErbB2/Fc Chimera, CF (R&D …). The description is as above.
In test [24] the target is T6, Recombinant Human DLL4 (R&D Systems …). The description is as above.
Test [25] addresses T7, rHuman Notch-1/Fc Chimera, CF (R&D …). The test is described as above.
Test [26] addresses T8, rHuman Erythropoietin R/Fc Chimera, CF …. The test is described as above.
Test [27] has as its target T9, rHuman HGF R/c-MET/Fc Chimera, CF (R&D …). The description is as above.

B1: Fab VH1-46_IGHD6-6*01_IGHJ1*01 S102A/S103P/S104F/H111F (APFF) & L6_IGKJ1*01 S30R (Fab, V domains shown)
VH: QVQLVQSGAEVKKPGASVKVSCKASGYTFTSYYMHWVRQAPGQGLEWMGIINPSGGSTSYAQKFQGRVTMTRDTSTSTVYMELSSLRSEDTAVYYCAREEYAPFSAEYFQFWGQGTLVTVSS
VL: EIVLTQSPATLSLSPGERATLSCRASQSVRSYLAWYQQKPGQAPRLLIYDASNRATGIPARFSGSGSGTDFTLTISSLEPEDFAVYYCQQRSNWPPWTFGQGTKVEIKR
notes: Fab made in E. coli: VH cloned into Plasmid A (CH1, His6 and Flag tags), kappa VL into Plasmid C (kappa CL); also called APFF / S30R
On to B1, for which the ECL signal in [1] is 395; in test [2], 422; in test [3], 442; in test [4] it was 472; in [5], 404; in test [6], 189000. The ECL signal in test [7] is 313; in test [8], 525; in [9], 452.

B2: Fab VH1-46_IGHD6-6*01_IGHJ1*01 S102A/S103P/S104F/H111F (APFF) & L6_IGKJ1*01 S30V (Fab, V domains shown)
VH: QVQLVQSGAEVKKPGASVKVSCKASGYTFTSYYMHWVRQAPGQGLEWMGIINPSGGSTSYAQKFQGRVTMTRDTSTSTVYMELSSLRSEDTAVYYCAREEYAPFSAEYFQFWGQGTLVTVSS
VL: EIVLTQSPATLSLSPGERATLSCRASQSVVSYLAWYQQKPGQAPRLLIYDASNRATGIPARFSGSGSGTDFTLTISSLEPEDFAVYYCQQRSNWPPWTFGQGTKVEIKR
notes: Fab made in E. coli: VH cloned into Plasmid A (CH1, His6 and Flag tags), kappa VL into Plasmid C (kappa CL); also called APFF / S30V
B2: the ECL signal turned out to be 412 in test [10]; 365 in test [11]; 333 in [12]; 375 in [13]; 279 in test [14]; 141000 in test [15]. The figures for the ECL signal in test [16], in test [17] and in test [18] were 294, 536 and 394, respectively.

B3: Fab VH1-46_IGHD6-6*01_IGHJ1*01 S102A/S103P/S104F/H111F (APFF) & L6_IGKJ1*01 S30T (Fab, V domains shown)
VH: QVQLVQSGAEVKKPGASVKVSCKASGYTFTSYYMHWVRQAPGQGLEWMGIINPSGGSTSYAQKFQGRVTMTRDTSTSTVYMELSSLRSEDTAVYYCAREEYAPFSAEYFQFWGQGTLVTVSS
VL: EIVLTQSPATLSLSPGERATLSCRASQSVTSYLAWYQQKPGQAPRLLIYDASNRATGIPARFSGSGSGTDFTLTISSLEPEDFAVYYCQQRSNWPPWTFGQGTKVEIKR
notes: Fab made in E. coli: VH cloned into Plasmid A (CH1, His6 and Flag tags), kappa VL into Plasmid C (kappa CL); also called APFF / S30T
As to B3, the ECL signal in test [19] was 383; in test [20] it was 401; in test [21], 418; in test [22], 521; in test [23], 269; in test [24], 136000. Besides, the ECL signal in test [25] came to 375; in [26] it was 470; in test [27] it was 320.
